Results on 1 protein are retold here after publication PMC9723649.

Substrate in series [1]: N[C@@H](CO)C(=O)O
The series is described as follows: purified protein.

Substrate in series [2]: Nc1ncnc2c1ncn2[C@@H]1O[C@H](COP(=O)(O)OP(=O)(O)OP(=O)(O)O)[C@@H](O)[C@H]1O
The series is described as follows: purified protein.

B1: SARS2 (human mitochondrial seryl-tRNA synthetase, mature form) (Homo sapiens; INS217NLSP/K218R) (protein)
chain: TTEKRNRNLLYEYAREGYSALPQLDIERFCACPEEAAHALELRKGELRSADLPAIISTWQELRQLQEQIRSLEEEKAAVTEAVRALLANQDSGEVQQDPKYQGLRARGREIRKELVHLYPREAQLEEQFYLQALKLPNQTHPDVPVGDESQARVLHMVGDKPVFSFQPRGHLEIGEKLDIIRQNLSPRRLSHVSGHRSYYLRGAGALLQHGLVNFTFNKLLRRGFTPMTVPDLLRGAVFEGCGMTPNANPSQIYNIDPARFKDLNLAGTAEVGLAGYFMDHTVAFRDLPVRMVCSSTCYRAETNTGQEPRGLYRVHHFTKVEMFGVTGPGLEQSSQLLEEFLSLQMEILTELGLHFRVLDMPTQELGLPAYRKFDIEAWMPGRGRFGEVTSASNCTDFQSRRLHIMFQTEAGELQFAHTVNATACAVPRLLIALLESNQQKDGSVLVPPALQSYLGTDRITAPTHVPLQYIGPNQPRKPGLPGQPAVS
Regarding B1, the Km in the series “purified protein [1]” is 1660 ± 30 µM; in the series “purified protein [2]” it was 64.69 ± 4.48 µM.

Broadly, the Km is the substrate concentration at which the rate is half of its maximum.
